In publication PMC3114773:

Biological target: β-arrestin2 (β-arr2) (UniProt Q91YI4)
Experiment: co-IP, anti-Myc IP, anti-GFP blot
Conditions: reference: wild type; sites S592,S594,T597,S599,S615,S619,S620,S642,S666,S774,S777,S791

binding against the reference: weaker
Substance: Smo (mSmo, mammalian Smoothened) (from UniProt P56726) SA mutant (taken as SA0–5)
